Here are results for two molecules from patent US20220403332A1, “SELF-ORGANIZING NEURAL ECTODERMAL LINEAGE CELLULAR STRUCTURES, AND COMPOSITIONS AND METHODS RELATING THERETO” (THE ROCKEFELLER UNIVERSITY, priority 2019, published 2022).

Format in all cases: cell-based, human
The test system of one assay is day 7 neuruloid. Kind of assay: neuruloid formation with blebbistatin, day 7 immunofluorescence. The settings on record: day 7 neuruloid treated with Blebbistatin 5 μM; stained for DAPI, N-CAD, PAX6, COL4 (FIG. 12E). The source says: FIG. 12—related to FIG. 6. (A) RUES2 and 56CAG background distribution within the main cell populations found in the neuruloid. All clusters are well represented in either background although 56CAG has a higher relative proportion of NC and placode cells. (B) Gene ontology analyses using DAVID (www.david.ncifcrf.gov) for NE- and NC-specific DEG between RUES2 and 56CAG. (C) Violin plots showing the distribution of normalized gene expression values for the genes in FIGS. 6B and 6C. (D) qPCR validation of the down-regulation of WNT/PCP and cytoskeleton-associated genes in the 56CAG neuruloid versus WT RUES2. (E) Representative image of a day 7 neuruloid treated with Blebbistatin (5 μM) and stained for DAPI, N-CAD, PAX6, and COL4. (Top) side view, (Bottom) top view.
In order to unravel the molecular mechanisms underlying the morphogenetic defect, single-cell RNA-seq data of neuruloids in WT and 56CAG background was explored. All major cell populations found in the WT neuruloid were also present in the 56CAG background, supporting the lack of influence on fate specification (FIG. 12A). […] Using Seurat to identify differentially expressed genes (DEG) between 56CAG and RUES2 cell lines, 499 misregulated genes specific to the NE (adjusted p-value ≤0.05 and a minimum percentage difference in cells expressing the gene ≥10%) and 663 specific for the NC population was found (FIG. 6E). […]

The subject of assay [1] is 500 μm micropatterned colonies (hESCs, RUES2). Kind of assay: neuruloid formation at different BMP4 concentrations, day 7 immunofluorescence. The settings on record: 500 μm colonies at day 7. The source says:
FIG. 2 depicts self-organization into neuruloids on micropatterns. (A) Schematic of the neuruloid differentiation protocol. (B) Immunofluorescence imaging of 80, 200 and 500 μm of day 7 micropatterned colonies. Samples were stained with DAPI (gray), PAX6 (green), and N-CAD (orange). (C) Immunofluorescence imaging of 500 μm of day 7 micropatterned colonies. Samples were stained with DAPI (gray), PAX6 (green), and COL4 (Collagen IV, orange). Side view of resliced z-stack around PAX6+ center region, colony edge region is also shown. (D) replicates with PAX6 (green) and SOX10 (red). (E) (Left) Immunofluorescence imaging of 500 μm micropatterned colonies at day 7 with different BMP4 concentrations: 0, 3, 13, and 50 ng/ml. Samples were stained with PAX6 (green), SOX10 (red) and cranial placode marker SIX1 (orange). (Right) Quantifications of SIX1 positive cell number. Data are mean±standard deviation. (F) (Top Left) Sketch of the ectodermal compartment at neurulation in vivo. (Top Right) Sketch of the neuruloid on micropattern. (Middle panel) Side view of the day 7 neuruloid with 3 ng/ml of BMP. Samples were stained with DAPI, PAX6, SOX10, SIX1, and non-neural ectoderm maker TFAP2A. Note that the TFAP2A+ also stain a few SOX10 and SIX1 positive cells. The non-neural ectoderm cells are only TFAP2A positive. (Bottom) Top view by multiple z from bottom to top. All scale bars represent 50 μm. […]

A further assay concerns pSMAD1. Kind of assay: signaling dynamics time-course after BMP4 presentation (immunofluorescence, western blot). As to the method: FIG. 4 depicts coupling of cell fate specification with a two-step morphogenesis mechanism during neuruloid formation. (A) (Top) time course immunofluorescence analysis of the neuruloid from day 3 to 4. Day 3 micropattern colonies were treated with BMP4 (3 ng/ml) for 1, 3, 5, 10, and 24 hours then stained with PAX6, pSMAD1, and TFAP2A. (Bottom Left) Western blot analysis of the micropattern colonies treated with BMP as above. Sample were stained with anti-pSMAD1/5 antibody. Anti-total SMAD antibody was used as a control. (Bottom Right) Quantification of the western blot analysis. (B) Time-lapse video microscopy imaging of neuruloid formation from day 3 to 6 using the live reporter line (PAX6::H2B-Citrin and SOX10::H2B-tdTomato). Images were recorded every 30 min from day 3 to the end of day 5 (66 hours total). Representative images are shown (a; first image of day 3, b; first image of day 4, c; first image of day 5, d; last image of day 5). […] (E) Associated quantification of PAX6, SIX1, and SOX10 area of the neuruloid treated with indicated drugs. […]
To uncover the molecular mechanisms of neuruloid self-organization, the signaling dynamics over a time-course after BMP4 presentation was followed. […] Only a few SOX10+ cells were detected during this initial phase, but a large expansion occurred in the SOX10 area concomitant with the PAX6 domain condensation starting at day 5. […]
(Immunoblotting shows a protein as a band on a membrane.)

In the case of `Cc1ccc2c(c1)C(=O)C1(O)CCN(c3ccccc3)C1=N2` (centres unmarked) [blebbistatin], in the assay with day 7 neuruloid, the “central neuro-epithelium morphology (opened versus closed)” value was “phenocopies the opened neuro-epithelium observed in HD and Htt−/− neuruloids”.

B1: BMP4: bone morphogenetic protein (BMP) used as morphogen to drive neuruloid formation (protein, UniProt P12644 293-408, looked up)
Bone morphogenetic protein 4: SPKHHSQRARKKNKNCRRHSLYVDFSDVGWNDWIVAPPGYQAFYCHGDCPFPLADHLNSTNHAIVQTLVNSVNSSIPKACCVPTELSAISMLYLDEYDKVVLKNYQEMVVEGCGCR
Regarding B1, the “overall spatial distribution of cell types” value in assay [1] (BMP4 0, 3, 13 and 50 ng/ml from day 3) is recorded as “independent of BMP4 concentration”. In assay [1] (BMP4 0, 3, 13 and 50 ng/ml from day 3 (FIG. 2E, 8H)), the “number of SIX1+ cells” value is on record as “peaked at intermediate levels”. For the same molecule, the TFAP2A induction result in the assay with pSMAD1 (24 hours after BMP4 (3 ng/ml) presentation at day 3) was “induction of TFAP2A+ in the same domain”. In addition, the “pSMAD1 signaling after BMP4 presentation” value in the assay with pSMAD1 (day 3 colonies treated with BMP4 3 ng/ml for 1, 3, 5, 10, 24 hours (FIG. 4A)) is on record as “pulse of pSMAD1 restricted to the colony edge”.
